Assay results as given in US20130011380A1.
Several values for one entry are separate records, joined by “and”; a condition that tells them apart may be missing. Equal values may be shown once. Blank lines part the entries; values can stand above or below the substance they belong to.

What was measured:
Assay in all cases: anti-Flag IP-MS, mES nuclear extract
Ruvbl2 (mouse) = Ruvbl2 (mouse) (UniProt Q9WTM5)
Ywhaz (mouse) = Ywhaz (mouse) (UniProt P63101)
Cct8 (mouse) = Cct8 (mouse) (UniProt P42932)
Impdh2 (mouse) = Impdh2 (mouse) (UniProt P24547)
Lars (mouse) = Lars (mouse) (UniProt Q8BMJ2)
Dnaja3 (mouse) = Dnaja3 (mouse) (UniProt Q99M87)
Tex10 (mouse) = Tex10 (mouse) (UniProt Q3URQ0)
Cbx1 (mouse) = Cbx1 (mouse) (UniProt P83917)
Pcnt (mouse) = Pcnt (mouse) (UniProt P48725)
Zc3h18 (mouse) = Zc3h18 (mouse) (UniProt Q0P678)
Las1l (mouse) = Las1l (mouse) (UniProt A2BE28)
Nup188 (mouse) = Nup188 (mouse) (UniProt Q6ZQH8)
Tubb6 (mouse) = Tubb6 (mouse) (UniProt Q922F4)
Rbm25 (mouse) = Rbm25 (mouse) (UniProt B2RY56)
Ncapd2 (mouse) = Ncapd2 (mouse) (UniProt Q8K2Z4)
Nol9 (mouse) = Nol9 (mouse) (UniProt Q3TZX8)
Emd (mouse) = Emd (mouse) (UniProt O08579)
Uba1 (mouse) = Uba1 (mouse) (UniProt Q02053)
Rad21 (mouse) = Rad21 (mouse) (UniProt Q61550)
Ddb1 (mouse) = Ddb1 (mouse) (UniProt Q3U1J4)
Nup160 (mouse) = Nup160 (mouse) (UniProt Q9Z0W3)
Dnaja2 (mouse) = Dnaja2 (mouse) (UniProt Q9QYJ0)
Nars (mouse) = Nars (mouse) (UniProt Q8BP47)
Ddx20 (mouse) = Ddx20 (mouse) (UniProt Q9JJY4)
Smarcad1 (mouse) = Smarcad1 (mouse) (UniProt Q04692)
Krt18 (mouse) = Krt18 (mouse) (UniProt P05784)
Dnaja1 (mouse) = Dnaja1 (mouse) (UniProt P63037)
Spna2 (mouse) = Spna2 (mouse) (UniProt P16546)
Prpf4b (mouse) = Prpf4b (mouse) (UniProt Q61136)
Cul4b (mouse) = Cul4b (mouse) (UniProt A2A432)
Kif11 (mouse) = Kif11 (mouse) (UniProt Q6P9P6)
Atxn10 (mouse) = Atxn10 (mouse) (UniProt P28658)
Calu (mouse) = Calu (mouse) (UniProt O35887)
Tufm (mouse) = Tufm (mouse) (UniProt Q8BFR5)
Nup214 (mouse) = Nup214 (mouse) (UniProt Q80U93)
Rfc5 (mouse) = Rfc5 (mouse) (UniProt Q9D0F6)
Eprs (mouse) = Eprs (mouse) (UniProt Q8CGC7)
Plekha7 (mouse) = Plekha7 (mouse) (UniProt Q3UIL6)
Smarcc1 (mouse) = Smarcc1 (mouse) (UniProt P97496)
Smarca5 (mouse) = Smarca5 (mouse) (UniProt Q91ZW3)

Sequence of Uba1 (mouse) (Q02053 2-1058 limits assumed): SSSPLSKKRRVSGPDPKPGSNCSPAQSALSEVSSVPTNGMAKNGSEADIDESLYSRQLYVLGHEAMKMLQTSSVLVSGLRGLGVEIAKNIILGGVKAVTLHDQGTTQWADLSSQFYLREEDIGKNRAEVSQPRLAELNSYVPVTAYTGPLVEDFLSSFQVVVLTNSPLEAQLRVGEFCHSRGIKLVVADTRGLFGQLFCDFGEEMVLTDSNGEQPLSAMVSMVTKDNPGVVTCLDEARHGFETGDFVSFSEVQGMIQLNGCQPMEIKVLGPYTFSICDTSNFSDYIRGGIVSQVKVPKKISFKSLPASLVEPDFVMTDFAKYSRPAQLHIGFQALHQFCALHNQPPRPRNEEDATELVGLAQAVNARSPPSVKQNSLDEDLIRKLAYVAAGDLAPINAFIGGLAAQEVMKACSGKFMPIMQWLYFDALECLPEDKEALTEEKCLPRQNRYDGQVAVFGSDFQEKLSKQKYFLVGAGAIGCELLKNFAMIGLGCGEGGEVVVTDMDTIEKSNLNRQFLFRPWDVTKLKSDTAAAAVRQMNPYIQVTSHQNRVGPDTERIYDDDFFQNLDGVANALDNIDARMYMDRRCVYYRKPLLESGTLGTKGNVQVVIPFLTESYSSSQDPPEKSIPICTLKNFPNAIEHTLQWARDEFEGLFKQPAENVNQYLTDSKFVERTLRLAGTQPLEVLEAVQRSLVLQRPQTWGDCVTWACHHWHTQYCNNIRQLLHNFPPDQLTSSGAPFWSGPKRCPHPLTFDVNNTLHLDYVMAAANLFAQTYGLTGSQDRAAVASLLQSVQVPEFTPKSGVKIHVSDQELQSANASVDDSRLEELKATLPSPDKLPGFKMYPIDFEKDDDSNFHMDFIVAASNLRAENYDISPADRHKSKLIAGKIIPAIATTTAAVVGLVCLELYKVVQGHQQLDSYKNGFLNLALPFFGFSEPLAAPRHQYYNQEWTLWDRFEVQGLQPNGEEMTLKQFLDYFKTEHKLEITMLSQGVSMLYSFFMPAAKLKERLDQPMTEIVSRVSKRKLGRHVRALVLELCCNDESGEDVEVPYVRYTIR
Sequence of Cct8 (mouse) (P42932 2-548 limits assumed): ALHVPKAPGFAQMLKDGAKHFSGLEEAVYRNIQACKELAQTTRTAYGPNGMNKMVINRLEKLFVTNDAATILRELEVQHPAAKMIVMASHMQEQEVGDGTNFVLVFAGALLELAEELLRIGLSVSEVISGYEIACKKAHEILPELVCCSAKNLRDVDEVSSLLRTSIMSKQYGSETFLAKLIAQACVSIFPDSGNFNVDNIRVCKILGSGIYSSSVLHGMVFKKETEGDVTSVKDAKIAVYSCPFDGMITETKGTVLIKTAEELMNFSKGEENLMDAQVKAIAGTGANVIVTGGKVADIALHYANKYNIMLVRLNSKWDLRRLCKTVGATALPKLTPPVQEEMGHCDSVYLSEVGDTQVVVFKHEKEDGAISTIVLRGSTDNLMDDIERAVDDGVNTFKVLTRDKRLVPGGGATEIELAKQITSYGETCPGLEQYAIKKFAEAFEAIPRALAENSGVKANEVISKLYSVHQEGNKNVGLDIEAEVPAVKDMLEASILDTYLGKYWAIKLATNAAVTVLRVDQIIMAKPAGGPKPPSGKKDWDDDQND
Sequence of Rad21 (mouse) (Q61550 whole entry): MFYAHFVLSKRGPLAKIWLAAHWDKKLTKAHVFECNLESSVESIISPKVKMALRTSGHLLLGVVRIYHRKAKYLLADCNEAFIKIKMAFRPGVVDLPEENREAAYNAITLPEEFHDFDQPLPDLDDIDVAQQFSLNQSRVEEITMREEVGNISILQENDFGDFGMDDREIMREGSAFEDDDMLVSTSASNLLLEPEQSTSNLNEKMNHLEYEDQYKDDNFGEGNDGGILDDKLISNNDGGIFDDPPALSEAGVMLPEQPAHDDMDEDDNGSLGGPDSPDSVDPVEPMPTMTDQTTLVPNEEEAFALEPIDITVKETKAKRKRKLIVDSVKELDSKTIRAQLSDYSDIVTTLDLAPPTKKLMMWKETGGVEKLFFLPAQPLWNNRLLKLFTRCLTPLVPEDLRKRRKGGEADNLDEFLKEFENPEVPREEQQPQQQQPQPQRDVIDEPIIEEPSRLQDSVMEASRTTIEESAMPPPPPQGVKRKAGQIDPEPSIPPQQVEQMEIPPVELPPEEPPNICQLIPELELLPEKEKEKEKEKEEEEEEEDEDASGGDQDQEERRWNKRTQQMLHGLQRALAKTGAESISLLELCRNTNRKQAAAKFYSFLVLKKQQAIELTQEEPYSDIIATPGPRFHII
Sequence of Lars (mouse) (Q8BMJ2 whole entry): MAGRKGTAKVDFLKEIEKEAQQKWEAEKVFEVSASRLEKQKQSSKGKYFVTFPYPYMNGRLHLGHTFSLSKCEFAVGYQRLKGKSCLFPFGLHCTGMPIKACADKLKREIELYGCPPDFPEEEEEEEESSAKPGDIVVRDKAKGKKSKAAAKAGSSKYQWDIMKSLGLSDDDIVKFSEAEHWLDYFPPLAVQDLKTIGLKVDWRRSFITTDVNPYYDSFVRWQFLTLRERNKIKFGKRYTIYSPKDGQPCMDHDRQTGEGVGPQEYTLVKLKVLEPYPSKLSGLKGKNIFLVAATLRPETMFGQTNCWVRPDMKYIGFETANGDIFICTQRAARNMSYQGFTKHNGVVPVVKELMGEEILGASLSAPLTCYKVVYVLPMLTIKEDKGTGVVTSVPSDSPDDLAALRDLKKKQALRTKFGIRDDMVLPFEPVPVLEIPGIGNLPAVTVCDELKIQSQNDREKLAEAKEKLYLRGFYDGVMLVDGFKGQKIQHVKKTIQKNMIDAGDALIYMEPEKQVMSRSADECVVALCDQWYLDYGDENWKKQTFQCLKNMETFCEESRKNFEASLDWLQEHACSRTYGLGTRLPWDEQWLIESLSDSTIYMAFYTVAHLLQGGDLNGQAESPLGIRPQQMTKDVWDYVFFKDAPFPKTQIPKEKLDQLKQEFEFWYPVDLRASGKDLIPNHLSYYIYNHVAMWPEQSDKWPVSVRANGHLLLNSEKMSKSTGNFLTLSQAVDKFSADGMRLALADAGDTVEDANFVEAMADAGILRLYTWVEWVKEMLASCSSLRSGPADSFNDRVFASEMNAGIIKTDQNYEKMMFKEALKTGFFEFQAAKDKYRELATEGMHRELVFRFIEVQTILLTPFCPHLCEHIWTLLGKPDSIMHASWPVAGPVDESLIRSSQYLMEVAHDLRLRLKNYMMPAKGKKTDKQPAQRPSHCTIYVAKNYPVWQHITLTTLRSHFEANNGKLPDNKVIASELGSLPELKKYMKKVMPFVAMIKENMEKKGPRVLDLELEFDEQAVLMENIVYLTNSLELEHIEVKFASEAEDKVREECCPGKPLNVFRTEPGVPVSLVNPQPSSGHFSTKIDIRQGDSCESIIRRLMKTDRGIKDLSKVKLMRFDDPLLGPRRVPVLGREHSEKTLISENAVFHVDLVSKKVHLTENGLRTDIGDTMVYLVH
Sequence of Kif11 (mouse) (Q6P9P6 whole entry): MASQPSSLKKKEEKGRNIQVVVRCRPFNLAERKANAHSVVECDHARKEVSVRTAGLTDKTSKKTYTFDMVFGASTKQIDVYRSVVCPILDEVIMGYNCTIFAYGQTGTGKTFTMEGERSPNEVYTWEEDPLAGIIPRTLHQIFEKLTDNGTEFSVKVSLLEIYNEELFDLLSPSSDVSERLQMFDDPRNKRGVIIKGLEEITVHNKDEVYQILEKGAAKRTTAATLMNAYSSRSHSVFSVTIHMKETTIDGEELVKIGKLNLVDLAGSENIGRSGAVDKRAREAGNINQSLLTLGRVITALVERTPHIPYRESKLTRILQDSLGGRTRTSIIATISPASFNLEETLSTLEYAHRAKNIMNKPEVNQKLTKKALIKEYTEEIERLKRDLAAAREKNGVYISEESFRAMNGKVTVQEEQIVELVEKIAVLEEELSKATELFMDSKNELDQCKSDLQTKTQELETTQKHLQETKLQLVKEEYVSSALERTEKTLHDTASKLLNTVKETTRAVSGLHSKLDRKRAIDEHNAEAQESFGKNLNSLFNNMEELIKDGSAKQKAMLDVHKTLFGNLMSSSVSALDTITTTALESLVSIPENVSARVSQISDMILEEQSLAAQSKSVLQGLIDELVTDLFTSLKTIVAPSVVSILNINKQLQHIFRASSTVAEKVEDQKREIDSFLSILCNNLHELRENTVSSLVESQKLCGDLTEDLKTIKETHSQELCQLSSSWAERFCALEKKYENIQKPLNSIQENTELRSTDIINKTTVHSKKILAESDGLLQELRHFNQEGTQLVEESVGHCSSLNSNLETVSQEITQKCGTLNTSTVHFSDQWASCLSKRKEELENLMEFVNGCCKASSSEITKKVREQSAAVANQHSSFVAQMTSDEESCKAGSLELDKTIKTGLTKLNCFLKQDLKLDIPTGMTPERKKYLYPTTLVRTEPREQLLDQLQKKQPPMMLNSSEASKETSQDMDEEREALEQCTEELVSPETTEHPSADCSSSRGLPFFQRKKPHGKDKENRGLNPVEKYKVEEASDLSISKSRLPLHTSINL
Sequence of Krt18 (mouse) (P05784 2-423 limits assumed): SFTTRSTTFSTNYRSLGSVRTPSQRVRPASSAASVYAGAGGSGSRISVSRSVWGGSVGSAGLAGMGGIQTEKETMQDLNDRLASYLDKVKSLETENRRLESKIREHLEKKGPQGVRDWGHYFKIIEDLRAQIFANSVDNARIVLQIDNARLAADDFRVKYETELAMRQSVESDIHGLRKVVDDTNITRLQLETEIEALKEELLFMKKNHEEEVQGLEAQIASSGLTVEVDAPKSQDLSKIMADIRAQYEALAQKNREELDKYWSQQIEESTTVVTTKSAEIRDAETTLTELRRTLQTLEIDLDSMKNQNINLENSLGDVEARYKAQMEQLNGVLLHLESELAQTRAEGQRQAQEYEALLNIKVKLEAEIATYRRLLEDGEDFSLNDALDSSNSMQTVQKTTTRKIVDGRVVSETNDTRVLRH
Sequence of Cbx1 (mouse) (P83917 whole entry): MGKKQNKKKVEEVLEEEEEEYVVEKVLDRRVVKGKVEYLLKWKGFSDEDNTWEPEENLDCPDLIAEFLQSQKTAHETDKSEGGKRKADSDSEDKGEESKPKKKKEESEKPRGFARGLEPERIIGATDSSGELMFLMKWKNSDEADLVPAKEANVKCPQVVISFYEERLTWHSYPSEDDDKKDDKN

Nucleus peptide (Ruvbl2 (mouse)): 4 peptides
Nucleus spectra (Ruvbl2 (mouse)): 10 spectra
Nucleus peptide (Ywhaz (mouse)): 1 peptides
Nucleus spectra (Ywhaz (mouse)): 6 spectra
Nucleus peptide (Cct8 (mouse)): 6 peptides
Nucleus spectra (Cct8 (mouse)): 10 spectra
Nucleus peptide (Impdh2 (mouse)): 8 peptides
Nucleus spectra (Impdh2 (mouse)): 17 spectra
Nucleus peptide (Lars (mouse)): 4 peptides
Nucleus spectra (Lars (mouse)): 6 spectra
Nucleus peptide (Dnaja3 (mouse)): 1 peptides
Nucleus spectra (Dnaja3 (mouse)): 2 spectra
Nucleus peptide (Tex10 (mouse)): 1 peptides
Nucleus spectra (Tex10 (mouse)): 3 spectra
Nucleus peptide (Cbx1 (mouse)): 1 peptides
Nucleus spectra (Cbx1 (mouse)): 4 spectra
Nucleus peptide (Pcnt (mouse)): 0 peptides
Nucleus spectra (Pcnt (mouse)): 0 spectra
Nucleus peptide (Zc3h18 (mouse)): 3 peptides and 1 peptides
Nucleus peptide (Las1l (mouse)): 2 peptides
Nucleus spectra (Las1l (mouse)): 3 spectra
Nucleus peptide (Nup188 (mouse)): 2 peptides
Nucleus spectra (Nup188 (mouse)): 3 spectra
Nucleus peptide (Tubb6 (mouse)): 1 peptides
Nucleus spectra (Tubb6 (mouse)): 1 spectra
Nucleus peptide (Rbm25 (mouse)): 3 peptides
Nucleus spectra (Rbm25 (mouse)): 7 spectra
Nucleus peptide (Ncapd2 (mouse)): 1 peptides
Nucleus spectra (Ncapd2 (mouse)): 1 spectra
Nucleus peptide (Nol9 (mouse)): 1 peptides
Nucleus spectra (Nol9 (mouse)): 1 spectra
Nucleus peptide (Emd (mouse)): 1 peptides
Nucleus spectra (Emd (mouse)): 1 spectra
Nucleus peptide (Uba1 (mouse)): 3 peptides
Nucleus spectra (Uba1 (mouse)): 5 spectra
Nucleus peptide (Rad21 (mouse)): 0 peptides
Nucleus spectra (Rad21 (mouse)): 0 spectra
Nucleus peptide (Ddb1 (mouse)): 0 peptides
Nucleus spectra (Ddb1 (mouse)): 0 spectra
Nucleus peptide (Nup160 (mouse)): 6 peptides
Nucleus spectra (Nup160 (mouse)): 11 spectra
Nucleus peptide (Dnaja2 (mouse)): 1 peptides
Nucleus spectra (Dnaja2 (mouse)): 2 spectra
Nucleus peptide (Nars (mouse)): 3 peptides
Nucleus spectra (Nars (mouse)): 3 spectra
Nucleus peptide (Ddx20 (mouse)): 1 peptides
Nucleus spectra (Ddx20 (mouse)): 1 spectra
Nucleus peptide (Smarcad1 (mouse)): 1 peptides
Nucleus spectra (Smarcad1 (mouse)): 1 spectra
Nucleus peptide (Krt18 (mouse)): 13 peptides
Nucleus spectra (Krt18 (mouse)): 29 spectra
Nucleus peptide (Dnaja1 (mouse)): 3 peptides
Nucleus spectra (Dnaja1 (mouse)): 5 spectra
Nucleus peptide (Spna2 (mouse)): 5 peptides
Nucleus spectra (Spna2 (mouse)): 9 spectra
Nucleus peptide (Prpf4b (mouse)): 0 peptides
Nucleus spectra (Prpf4b (mouse)): 0 spectra
Nucleus peptide (Cul4b (mouse)): 0 peptides
Nucleus spectra (Cul4b (mouse)): 0 spectra
Nucleus peptide (Kif11 (mouse)): 0 peptides
Nucleus spectra (Kif11 (mouse)): 0 spectra
Nucleus peptide (Atxn10 (mouse)): 4 peptides
Nucleus spectra (Atxn10 (mouse)): 10 spectra
Nucleus peptide (Calu (mouse)): 0 peptides
Nucleus spectra (Calu (mouse)): 0 spectra
Nucleus peptide (Tufm (mouse)): 6 peptides
Nucleus spectra (Tufm (mouse)): 11 spectra
Nucleus peptide (Nup214 (mouse)): 7 peptides
Nucleus spectra (Nup214 (mouse)): 11 spectra
Nucleus peptide (Rfc5 (mouse)): 0 peptides
Nucleus spectra (Rfc5 (mouse)): 0 spectra
Nucleus peptide (Eprs (mouse)): 3 peptides
Nucleus spectra (Eprs (mouse)): 3 spectra
Nucleus peptide (Plekha7 (mouse)): 1 peptides
Nucleus spectra (Plekha7 (mouse)): 1 spectra
Nucleus peptide (Smarcc1 (mouse)): 4 peptides
Nucleus spectra (Smarcc1 (mouse)): 4 spectra
Nucleus peptide (Smarca5 (mouse)): 8 peptides
Nucleus spectra (Smarca5 (mouse)): 15 spectra
Substance: 2x Flag tag only (control) (peptide)

Nucleus peptide (Ruvbl2 (mouse)): 12 peptides
Nucleus spectra (Ruvbl2 (mouse)): 31 spectra
Nucleus peptide (Ywhaz (mouse)): 6 peptides
Nucleus spectra (Ywhaz (mouse)): 17 spectra
Nucleus peptide (Cct8 (mouse)): 12 peptides
Nucleus spectra (Cct8 (mouse)): 31 spectra
Nucleus peptide (Impdh2 (mouse)): 12 peptides
Nucleus spectra (Impdh2 (mouse)): 37 spectra
Nucleus peptide (Lars (mouse)): 9 peptides
Nucleus spectra (Lars (mouse)): 13 spectra
Nucleus peptide (Dnaja3 (mouse)): 7 peptides
Nucleus spectra (Dnaja3 (mouse)): 28 spectra
Nucleus peptide (Tex10 (mouse)): 6 peptides
Nucleus spectra (Tex10 (mouse)): 12 spectra
Nucleus peptide (Cbx1 (mouse)): 2 peptides
Nucleus spectra (Cbx1 (mouse)): 12 spectra
Nucleus peptide (Pcnt (mouse)): 5 peptides
Nucleus spectra (Pcnt (mouse)): 6 spectra
Nucleus peptide (Zc3h18 (mouse)): 5 peptides and 2 peptides
Nucleus spectra (Zc3h18 (mouse)): 20 spectra and 8 spectra
Nucleus peptide (Las1l (mouse)): 9 peptides
Nucleus spectra (Las1l (mouse)): 21 spectra
Nucleus peptide (Nup188 (mouse)): 4 peptides
Nucleus spectra (Nup188 (mouse)): 7 spectra
Nucleus peptide (Tubb6 (mouse)): 3 peptides
Nucleus spectra (Tubb6 (mouse)): 5 spectra
Nucleus peptide (Rbm25 (mouse)): 6 peptides
Nucleus spectra (Rbm25 (mouse)): 15 spectra
Nucleus peptide (Ncapd2 (mouse)): 10 peptides
Nucleus spectra (Ncapd2 (mouse)): 22 spectra
Nucleus peptide (Nol9 (mouse)): 6 peptides
Nucleus spectra (Nol9 (mouse)): 14 spectra
Nucleus peptide (Emd (mouse)): 4 peptides
Nucleus spectra (Emd (mouse)): 10 spectra
Nucleus peptide (Uba1 (mouse)): 10 peptides
Nucleus spectra (Uba1 (mouse)): 18 spectra
Nucleus peptide (Rad21 (mouse)): 3 peptides
Nucleus spectra (Rad21 (mouse)): 6 spectra
Nucleus peptide (Ddb1 (mouse)): 3 peptides
Nucleus spectra (Ddb1 (mouse)): 3 spectra
Nucleus peptide (Nup160 (mouse)): 12 peptides
Nucleus spectra (Nup160 (mouse)): 24 spectra
Nucleus peptide (Dnaja2 (mouse)): 12 peptides
Nucleus spectra (Dnaja2 (mouse)): 43 spectra
Nucleus peptide (Nars (mouse)): 7 peptides
Nucleus spectra (Nars (mouse)): 16 spectra
Nucleus peptide (Ddx20 (mouse)): 3 peptides
Nucleus spectra (Ddx20 (mouse)): 7 spectra
Nucleus peptide (Smarcad1 (mouse)): 5 peptides
Nucleus spectra (Smarcad1 (mouse)): 8 spectra
Nucleus peptide (Krt18 (mouse)): 21 peptides
Nucleus spectra (Krt18 (mouse)): 96 spectra
Nucleus peptide (Dnaja1 (mouse)): 13 peptides
Nucleus spectra (Dnaja1 (mouse)): 49 spectra
Nucleus peptide (Spna2 (mouse)): 14 peptides
Nucleus spectra (Spna2 (mouse)): 28 spectra
Nucleus peptide (Prpf4b (mouse)): 3 peptides
Nucleus spectra (Prpf4b (mouse)): 7 spectra
Nucleus peptide (Cul4b (mouse)): 4 peptides
Nucleus spectra (Cul4b (mouse)): 7 spectra
Nucleus peptide (Kif11 (mouse)): 3 peptides
Nucleus spectra (Kif11 (mouse)): 4 spectra
Nucleus peptide (Atxn10 (mouse)): 10 peptides
Nucleus spectra (Atxn10 (mouse)): 23 spectra
Nucleus peptide (Calu (mouse)): 3 peptides
Nucleus spectra (Calu (mouse)): 6 spectra
Nucleus peptide (Tufm (mouse)): 9 peptides
Nucleus spectra (Tufm (mouse)): 25 spectra
Nucleus peptide (Nup214 (mouse)): 13 peptides
Nucleus spectra (Nup214 (mouse)): 29 spectra
Nucleus peptide (Rfc5 (mouse)): 3 peptides
Nucleus spectra (Rfc5 (mouse)): 5 spectra
Nucleus peptide (Eprs (mouse)): 5 peptides
Nucleus spectra (Eprs (mouse)): 7 spectra
Nucleus peptide (Plekha7 (mouse)): 4 peptides
Nucleus spectra (Plekha7 (mouse)): 6 spectra
Nucleus peptide (Smarcc1 (mouse)): 6 peptides
Nucleus spectra (Smarcc1 (mouse)): 10 spectra
Nucleus peptide (Smarca5 (mouse)): 16 peptides
Nucleus spectra (Smarca5 (mouse)): 45 spectra
Substance: human AID containing two tandem Flag tags (Flag-human AID) (from UniProt Q9GZX7 1-198) (enzyme)
